# Where a chain is given by its changes, count along the chain named.
# T1: mouse CD117 (mouse, UniProt P05532)
# T1 construct: antigen of the Carterra SPR kinetics; also called murine CD117
# T1 sequence (receptor, looked up): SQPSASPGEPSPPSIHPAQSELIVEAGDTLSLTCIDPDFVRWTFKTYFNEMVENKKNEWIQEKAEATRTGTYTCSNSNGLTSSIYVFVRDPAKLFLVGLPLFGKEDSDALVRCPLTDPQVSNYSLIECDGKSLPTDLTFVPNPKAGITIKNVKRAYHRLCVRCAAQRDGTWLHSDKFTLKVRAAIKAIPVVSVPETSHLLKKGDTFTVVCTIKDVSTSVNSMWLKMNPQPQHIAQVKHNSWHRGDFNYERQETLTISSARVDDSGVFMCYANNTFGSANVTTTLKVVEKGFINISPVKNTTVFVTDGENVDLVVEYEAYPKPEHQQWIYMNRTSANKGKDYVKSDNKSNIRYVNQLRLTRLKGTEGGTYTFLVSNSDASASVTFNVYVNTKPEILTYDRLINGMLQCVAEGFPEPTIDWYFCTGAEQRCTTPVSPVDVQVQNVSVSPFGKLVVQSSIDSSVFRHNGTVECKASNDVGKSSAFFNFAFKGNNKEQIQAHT
# B1: CD117-15 (antibody, human IgG1, kappa, V domains shown)
# VH: EVQLLESGGGLVQPGGSLRLSCAASGFTFSDYPMSWVRQAPGKGLEWVSAIGGSGGDTYYADSVKGRFTISRDNSKNTLYLQMNSLRAEDTAVYYCARGAYDGEGFDYWGQGTLVTVSS
# VL: DIQMTQSPSSLSASVGDRVTITCRTSQSIGSYLNWYQQKPGKAPKLLIYSASRLESGVPSRFSGSGSGTDFTLTISSLQPEDFATYYCQQTYNTPWTFGGGTKVEIKR
# notes: detected with anti-human IgG in FACS
# B2: CD117-3 (antibody, human IgG1, kappa, V domains shown)
# VH: EVQLLESGGGLVQPGGSLRLSCAASGFSFSSYAMSWVRQAPGKGLEWVSAISGTGGNTYYADSVKGRFTISRDNSKNTLYLQMNSLRAEDTAVYYCARRNDFWSDAFDIWGQGTLVTVSS
# VL: DIQMTQSPSSLSASVGDRVTITCRASQNIYTYLNWYQQKPGKAPKLLIYDASSLHSGVPSRFSGSGSGTDFTLTISSLQPEDFATYYCQQSSSTPYTFGGGTKVEIKR
# notes: as for B1
# B3: CD117-13 (antibody, human IgG1, kappa, V domains shown)
# VH: EVQLLESGGGLVQPGGSLRLSCAASGFTLTSYAMSWVRQAPGKGLEWVSTISGSGGYTYYADSVKGRFTISRDNSKNTLYLQMNSLRAEDTAVYYCARDSGYDRGLDYWGQGTLVTVSS
# VL: B2 VL
# notes: as for B1
# B4: CD117-8 (antibody, human IgG1, kappa, V domains shown)
# VH: B3 VH
# VL: B2 VL with N28S, I29V, Y30R, S53T, H55Q, S92Y, S93N, Y96L, T97A
# notes: as for B1
# B5: CD117-4 (antibody, human IgG1, kappa, V domains shown)
# VH: EVQLLESGGGLVQPGGSLRLSCAASGFTFSRSAMSWVRQAPGKGLEWVSAISAGGGNTYYADSVKGRFTISRDNSKNTLYLQMNSLRAEDTAVYYCAREQDLWSGTFDYWGQGTLVTVSS
# VL: B2 VL with S26R, N28S, Y30S, T31S, H55R, S92Y, S93K, Y96W
# notes: as for B1
# B6: SIGLEC-8-30 (antibody, human IgG1, kappa, V domains shown)
# VH: EVQLLESGGGLVQPGGSLRLSCAASGFTFSHYALSWVRQAPGKGLEWVSIISGSGDTTYYADSVKGRFTISRDNSKNTLYLQMNSLRAEDTAVYYCAKATYFYDSSGYRRATYFDYWGQGTLVTVSS
# VL: DIQMTQSPSSLSASVGDRVTITCRASQGISRHLNWYQQKPGKAPKLLIYAESTLQSGVPSRFSGSGSGTDFTLTISSLQPEDFATYYCQQTYTLPYTFGGGTKVEIKR
# notes: tested as expressed and purified mAb
# B7: SIGLEC-8-20 (antibody, human IgG1, kappa, V domains shown)
# VH: EVQLLESGGGLVQPGGSLRLSCAASGFTFSSFDMTWVRQAPGKGLEWVSSISGGGGSTYYADSVKGRFTISRDNSKNTLYLQMNSLRAEDTAVYYCAREDGSGSYSMDVWGQGTLVTVSS
# VL: B1 VL with T25A, G30D, S31N, N34H, S50A, R53N, S56G, T91S, N93K, W96V
# notes: as for B6
# B8: SIGLEC-8-52 (antibody, human IgG1, kappa, V domains shown)
# VH: EVQLLESGGGLVQPGGSLRLSCAASGFTFRSYVMSWVRQAPGKGLEWVSSISLSGGSTYYADSVKGRFTISRDNSKNTLYLQMNSLRAEDTAVYYCAREESGKYLSLDHWGQGTLVTVSS
# VL: B1 VL with T25A, I29V, G30S, S31N, Y32F, S50A, R53N, S56G, N93S, W96I
# notes: as for B6
# B9: SIGLEC-8-4 (antibody, human IgG1, kappa, V domains shown)
# VH: EVQLLESGGGLVQPGGSLRLSCAASGFSFSSDAMSWVRQAPGKGLEWVSGISGGGGSAYYADSVKGRFTISRDNSKNTLYLQMNSLRAEDTAVYYCAREGASNYAAFDIWGQGTLVTVSS
# VL: B2 VL with G16E, S26G, N28S, Y30T, T31P, D50A, A51T, S92H, T94S, Y96L
# notes: as for B6
# B10: SIGLEC-8-61 (antibody, human IgG1, kappa, V domains shown)
# VH: EVQLLESGGGLVQPGGSLRLSCAASGFTFSSSAMTWVRQAPGKGLEWVTAISESGGSTYYADSVKGRFTISRDNSKNTLYLQMNSLRAEDTAVYYCAREGGDYYYGIDVWGQGTLVTVSS
# VL: B2 VL with S26G, N28S, Y30N, T31R, D50G, S53N, H55Q, S92F, S93T, Y96L
# notes: tested as expressed and purified mAb; also called SIGLEC-61
# B11: SIGLEC-8-45 (antibody, human IgG1, kappa, V domains shown)
# VH: B9 VH with S28T, D32G, G50T, G54S, G56A, A58T, A101S, N103S, Y104W, A105N
# VL: B1 VL with T25A, S28T, G30A, S31N, S50A, R53N, S56D, T91S, W96I
# notes: as for B6
# B12: SIGLEC-8-53 (antibody, human IgG1, kappa, V domains shown)
# VH: B8 VH with R30S, Y32S, V33A, S35A, S50E, L53D
# VL: B2 VL with N28T, Y30I, T31N, D50G, S53N, L54V, H55Q, S92Y, S93V, Y96P
# notes: as for B6
# B13: SIGLEC-8-31 (antibody, human IgG1, kappa, V domains shown)
# VH: B8 VH with R30S, S31T, Y32D, V33A, S50T, I51V, L53G, G56A, E100D, H109Y
# VL: B1 VL with T25A, G30T, S31N, S50A, A51S, R53T, T91S, N93I, W96L
# notes: as for B6
# B14: SIGLEC-8-60 (antibody, human IgG1, kappa, V domains shown)
# VH: EVQLLESGGGLVQPGGSLRLSCAASGFTLSNYAMTWVRQAPGKGLEWVSTVSGSGASTYYADSVKGRFTISRDNSKNTLYLQMNSLRAEDTAVYYCARENSGKYLSLDYWGQGTLVTVSS
# VL: B6 VL with G28N, S30A, R31S, H32Y, E51T, T53D, T93N, L94I, Y96L
# notes: as for B6
# B15: SIGLEC-8-59 (antibody, human IgG1, kappa, V domains shown)
# VH: EVQLLESGGGLVQPGGSLRLSCAASGFTFTSYAVSWVRQAPGKGLEWVSSISGSGGSAYYADSVKGRFTISRDNSKNTLYLQMNSLRAEDTAVYYCARDTVGYGMDVWGQGTLVTVSS
# VL: B2 VL with N28T, Y30S, T31G, N34S, D50S, S53R, S91G, S92Y, Y96L
# notes: as for B6
# B16: SIGLEC-8-55 (antibody, human IgG1, kappa, V domains shown)
# VH: EVQLLESGGGLVQPGGSLRLSCAASGFTFDDYAMSWVRQAPGKGLEWVSYISGSGGSTYYADSVKGRFTISRDNSKNTLYLQMNSLRAEDTAVYYCAKYRRYDSGLGGFDYWGQGTLVTVSS
# VL: B2 VL with Q27R, N28S, Y30D, S53T, H55Q, S56G, S92Y, S93V, Y96P
# notes: tested as expressed and purified mAb; also called SIGLEC-55
# Target: T1, mouse CD117
# Assay: Carterra SPR, mouse CD117
# Experimental: (§1) To further evaluate the antibodies discovered during the screens, 21 clones were selected for detailed characterization and were analyzed for target binding kinetics by a Carterra SPR instrument. The binding kinetics of the anti-CD117 antibodies for human CD117, cynomolgus monkey CD117, and murine CD117 are shown in FIG. 29A-29B.
row,binding result,Binder
1,no binding,B1
2,no binding,B2
3,no binding,B3

# Target: T2, CD117 transiently expressed on Expi293 cells (UniProt P10721 26-976, limits assumed)
# T2 construct: whole, on cells; Two cassettes are described (P2A mVenus and direct mVenus fusion); also called CD117 transient cells; the transient cell line
# T2 sequence (P10721 26-976 limits assumed): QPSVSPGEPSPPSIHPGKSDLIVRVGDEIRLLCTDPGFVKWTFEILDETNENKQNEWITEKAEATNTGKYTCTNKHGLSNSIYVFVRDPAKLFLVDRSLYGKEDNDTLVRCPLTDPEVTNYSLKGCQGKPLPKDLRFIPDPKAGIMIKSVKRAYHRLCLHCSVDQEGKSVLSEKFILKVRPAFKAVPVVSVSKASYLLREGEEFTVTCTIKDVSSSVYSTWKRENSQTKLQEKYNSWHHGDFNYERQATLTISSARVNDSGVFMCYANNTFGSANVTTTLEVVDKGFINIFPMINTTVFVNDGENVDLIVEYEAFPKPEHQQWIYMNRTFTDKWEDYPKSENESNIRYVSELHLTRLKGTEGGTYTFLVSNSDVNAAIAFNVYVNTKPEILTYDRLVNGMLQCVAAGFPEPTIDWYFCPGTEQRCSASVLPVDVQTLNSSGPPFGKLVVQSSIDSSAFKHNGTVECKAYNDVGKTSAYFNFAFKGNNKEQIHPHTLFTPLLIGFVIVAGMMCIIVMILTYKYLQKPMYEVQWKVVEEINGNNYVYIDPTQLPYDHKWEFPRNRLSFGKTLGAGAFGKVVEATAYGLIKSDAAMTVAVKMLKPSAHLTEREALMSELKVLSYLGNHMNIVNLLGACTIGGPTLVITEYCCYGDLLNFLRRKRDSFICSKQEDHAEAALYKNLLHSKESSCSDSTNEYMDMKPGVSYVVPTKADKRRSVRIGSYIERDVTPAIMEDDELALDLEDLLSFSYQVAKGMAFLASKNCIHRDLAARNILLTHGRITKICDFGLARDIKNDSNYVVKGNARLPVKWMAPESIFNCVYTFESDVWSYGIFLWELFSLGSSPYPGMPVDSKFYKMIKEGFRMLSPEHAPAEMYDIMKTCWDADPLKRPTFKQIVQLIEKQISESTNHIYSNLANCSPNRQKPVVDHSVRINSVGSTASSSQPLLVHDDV
# Assay: FACS, MFI expressing / parental cells
# Experimental: (§2) The transient expression of CD117 was validated with a control antibody, Expi293 (FIGS. 17A-17B). Expi293, […], was transiently transfected with CD117 48-hours post-transfection. The secondary antibody used was APC Goat anti-human IgG (diluted 1:400). 100,000 cells per well were blocked with 1×PBS+0.5% BSA for 1 hour, stained with 100 μL of the primary antibody for 1 hour, and stained with the secondary antibody for one hour, all with 3× washes in between each staining.
row,MFI Ratio,Binder
1,4.25,B4
2,10.5,B5
3,18.6,B3

# Target: T3, cyno CD117 (Macaca fascicularis, UniProt A0A7N9CP24)
# T3 construct: antigen of the Carterra SPR kinetics; also called cynomolgus monkey CD117
# T3 sequence (A0A7N9CP24 entry or part of it): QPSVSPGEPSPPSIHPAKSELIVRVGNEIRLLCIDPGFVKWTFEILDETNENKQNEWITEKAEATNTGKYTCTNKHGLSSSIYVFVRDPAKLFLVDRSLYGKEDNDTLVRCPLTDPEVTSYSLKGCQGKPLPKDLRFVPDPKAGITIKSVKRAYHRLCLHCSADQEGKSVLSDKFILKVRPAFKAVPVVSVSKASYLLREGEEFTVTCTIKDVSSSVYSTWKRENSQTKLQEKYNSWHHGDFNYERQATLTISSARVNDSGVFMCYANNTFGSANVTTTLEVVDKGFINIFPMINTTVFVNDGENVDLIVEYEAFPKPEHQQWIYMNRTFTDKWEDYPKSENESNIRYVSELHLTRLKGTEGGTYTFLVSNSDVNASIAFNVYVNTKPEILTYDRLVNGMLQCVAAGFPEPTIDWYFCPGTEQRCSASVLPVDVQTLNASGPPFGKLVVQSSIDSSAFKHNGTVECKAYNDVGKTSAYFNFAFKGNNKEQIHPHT
# Assay: Carterra SPR, cyno CD117
# Experimental: as §1
Kd,koff,kon,Binder
480 nM,0.156 s⁻¹,324000 M⁻¹ s⁻¹,B3

# Target: T2, CD117 transiently expressed on Expi293 …
# Assay: FACS cell binding, Expi293 transiently expressing CD117
# Experimental: as §2
row,EC50,Binder
1,351 nM,B4
2,3.42 nM,B5
3,11 nM,B3

# Target: T4, Sialic acid-binding immunoglobulin-like lectin 8 (SIGLEC-8), antigen of the Carterra SPR studies (UniProt Q9NYZ4 17-363, limits assumed)
# T4 sequence (Q9NYZ4 17-363 limits assumed): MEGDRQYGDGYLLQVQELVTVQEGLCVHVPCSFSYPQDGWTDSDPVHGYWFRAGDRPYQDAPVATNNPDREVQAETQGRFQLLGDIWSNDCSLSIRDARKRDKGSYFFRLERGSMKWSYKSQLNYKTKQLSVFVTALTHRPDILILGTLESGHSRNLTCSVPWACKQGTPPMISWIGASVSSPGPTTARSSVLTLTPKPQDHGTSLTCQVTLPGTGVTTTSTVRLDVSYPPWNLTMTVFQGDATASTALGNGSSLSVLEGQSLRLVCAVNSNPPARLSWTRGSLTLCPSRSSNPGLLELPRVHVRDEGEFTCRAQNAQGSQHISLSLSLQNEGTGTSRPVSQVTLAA
# Assay: Carterra SPR kinetics, summary table
# How it was run: (§3)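 On a Carterra instrument, surface plasmon resonance was used to measure how antibodies bind SIGLEC-8, with rate constants and dissociation constants as read-outs. The antibodies were taken from synthetic libraries by bead-based panning and clonal ELISA screening, then expressed and purified.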
koff,kon,Binder
0.000124 s⁻¹,145000 M⁻¹ s⁻¹,B6
3.4e-05 s⁻¹,445000 M⁻¹ s⁻¹,B7
6.22e-05 s⁻¹,84900 M⁻¹ s⁻¹,B8
3.12e-05 s⁻¹,165000 M⁻¹ s⁻¹,B9
3.67e-05 s⁻¹,390000 M⁻¹ s⁻¹,B10
8.37e-05 s⁻¹,146000 M⁻¹ s⁻¹,B11
4.78e-05 s⁻¹,259000 M⁻¹ s⁻¹,B12
5.63e-05 s⁻¹,152000 M⁻¹ s⁻¹,B13
0.000116 s⁻¹,129000 M⁻¹ s⁻¹,B14

# Target: T5, SIGLEC-8 transiently expressed on cells (UniProt Q9NYZ4 17-499, limits assumed)
# T5 construct: whole, on cells; Two cassettes are described (P2A mVenus and direct mVenus fusion); also called the transient line; pTT5-SIGLEC-8 P2A mVenus
# T5 sequence (Q9NYZ4 17-499 limits assumed): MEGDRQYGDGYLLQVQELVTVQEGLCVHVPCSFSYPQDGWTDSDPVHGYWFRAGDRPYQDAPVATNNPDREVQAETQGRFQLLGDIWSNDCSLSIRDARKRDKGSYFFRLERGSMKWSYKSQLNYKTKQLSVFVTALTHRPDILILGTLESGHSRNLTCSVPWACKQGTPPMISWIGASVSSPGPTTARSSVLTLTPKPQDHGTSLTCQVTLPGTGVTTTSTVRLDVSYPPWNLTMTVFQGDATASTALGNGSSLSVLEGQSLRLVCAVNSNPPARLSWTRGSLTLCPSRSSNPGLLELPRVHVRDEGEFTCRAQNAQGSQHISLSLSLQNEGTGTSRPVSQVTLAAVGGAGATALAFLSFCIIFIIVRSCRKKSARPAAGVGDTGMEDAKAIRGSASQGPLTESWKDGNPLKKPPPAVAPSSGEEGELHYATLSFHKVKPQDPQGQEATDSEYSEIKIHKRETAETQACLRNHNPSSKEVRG
# Assay: cell binding titration, transient SIGLEC-8 line
row,EC50,Binder
1,1.5 nM,B6
2,0.972 nM,B7
3,4.07 nM,B8
4,0.939 nM,B15
5,2.38 nM,B9
6,0.494 nM,B10
7,1.81 nM,B11
8,0.69 nM,B12
9,1.33 nM,B13
10,3.01 nM,B16
11,0.653 nM,B14

# Target: T6, Cluster of differentiation 117 (CD117), antigen of epitope binning and ELISA (UniProt P10721 26-520, limits assumed)
# T6 construct: also called tyrosine-protein kinase KIT; mast/stem cell growth factor receptor (SCFR)
# T6 sequence (P10721 26-520 limits assumed): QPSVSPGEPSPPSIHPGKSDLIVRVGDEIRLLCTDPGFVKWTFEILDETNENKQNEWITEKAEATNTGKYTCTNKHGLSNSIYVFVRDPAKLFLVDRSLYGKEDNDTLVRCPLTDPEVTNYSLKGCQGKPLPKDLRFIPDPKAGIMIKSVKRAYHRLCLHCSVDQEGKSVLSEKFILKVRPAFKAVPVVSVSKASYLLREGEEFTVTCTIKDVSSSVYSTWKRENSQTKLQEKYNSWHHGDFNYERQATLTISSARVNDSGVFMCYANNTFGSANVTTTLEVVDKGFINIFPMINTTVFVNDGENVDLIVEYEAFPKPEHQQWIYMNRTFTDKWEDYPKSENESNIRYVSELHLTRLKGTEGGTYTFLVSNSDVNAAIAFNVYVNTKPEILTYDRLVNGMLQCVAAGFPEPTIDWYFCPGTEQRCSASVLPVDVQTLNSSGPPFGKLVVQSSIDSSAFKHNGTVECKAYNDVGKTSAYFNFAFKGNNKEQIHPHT
# Assay: Carterra SPR, human CD117
# Experimental: as §1
binding result,Kd,koff,kon,Binder
no binding,,,,B4
no binding,,,,B5
,5.17 nM,0.00877 s⁻¹,1.7e+06 M⁻¹ s⁻¹,B3

# Target: T4, Sialic acid-binding immunoglobulin-like …
# Assay: Carterra SPR
# How it was run: as §3
row,Kd,Binder
1,0.856 nM,B6
2,0.0764 nM,B7
3,0.733 nM,B8
4,31.2 nM,B15
5,0.189 nM,B9
6,0.0942 nM,B10
7,0.574 nM,B11
8,0.185 nM,B12
9,0.37 nM,B13
10,1.61 nM,B16
11,0.895 nM,B14
